In patent US20200093883A1 (published 2020) one finds IC50 data, which are given here for two molecules.

Square brackets hold non-standard residues; d marks the D form. Ends that are not written are not given here.

Among the targets are hJNK3; hJNK1; hJNK2.
Holding throughout (assay): AlphaScreen
(Alpha assays give light when donor and acceptor beads are brought close together.)

B1: SEQ ID NO: 172 (peptide)
peptide: [dR]KKR[dR]QRR[dR]RP[dK]RP[dA]TLNL[dF]-NH2
modifications: N-terminus assumed
SMILES: CC(C)C[C@H](NC(=O)[C@H](CC(N)=O)NC(=O)[C@H](CC(C)C)NC(=O)[C@@H](NC(=O)[C@@H](C)NC(=O)[C@@H]1CCCN1C(=O)[C@H](CCCNC(=N)N)NC(=O)[C@@H](CCCCN)NC(=O)[C@@H]1CCCN1C(=O)[C@H](CCCNC(=N)N)NC(=O)[C@@H](CCCNC(=N)N)NC(=O)[C@H](CCCNC(=N)N)NC(=O)[C@H](CCCNC(=N)N)NC(=O)[C@H](CCC(N)=O)NC(=O)[C@@H](CCCNC(=N)N)NC(=O)[C@H](CCCNC(=N)N)NC(=O)[C@H](CCCCN)NC(=O)[C@H](CCCCN)NC(=O)[C@H](N)CCCNC(=N)N)[C@@H](C)O)C(=O)N[C@H](Cc1ccccc1)C(N)=O
In general, IC50 refers to the midpoint of a concentration-inhibition curve. The low end stands for greater potency, the high end for weaker potency. Regarding B1, the IC50 was 102 nM in the experiment with hJNK3, 0.722 µM with hJNK1 and 54.7 nM with hJNK2.
For [dD][dQ][dS][dR][dP][dV][dQ][dP][dF][dL][dN][dL][dT][dT][dP][dR][dK][dP][dR][dP][dP][dR][dR][dR][dQ][dR][dR][dK][dK][dR]G [SEQ ID NO: 197], in that order: 1290 nM, 24.4 µM and 802 nM.
